The experiment concerns the target α-synuclein, 140-residue isoform (αSyn-140) (human) (UniProt P37840).

In paper PMC10873642 one finds decrease in aggregation half-time (t1/2) by ThT fluorescence of 90% (45 µM) αSyn-140 co-incubated with 10% (5 µM) αSyn-112 monomers, against 100% (50 µM) αSyn-140 data, which are given here for one substance.

“α-synuclein splice isoform αSyn-112 (lacking exon 5) (from UniProt P37840-2 1-112) (natural protein)”: the decrease in aggregation half-time (t1/2) by ThT fluorescence of 90% (45 µM) αSyn-140 co-incubated with 10% (5 µM) αSyn-112 monomers, against 100% (50 µM) αSyn-140 is 25%.
